According to patent publication US20230407373A1 (priority 2020, published 2023):

System: HCoV-OC43 gRNA and sgRNA
Format: binding
Details: for target (unweighted spectral count, OC43 Probe II capture): 36 hpi, type n_36_v, tested against no-probe control, FDR<10%; for target (unweighted spectral count, OC43 Probe II) / background (unweighted spectral count, no-probe control): type n_48_v, 48 hpi; for target (unweighted spectral count, OC43 Probe II): OC43 Probe II capture on infected cells; for background (unweighted spectral count, no-probe control): no-probe control on infected cells

| Molecule | target (unweighted spectral count, OC43 Probe II capture) | target (unweighted spectral count, OC43 Probe II) | background (unweighted spectral count, no-probe control) |
| --- | --- | --- | --- |
| SF3B1 (protein, UniProt O75533 1-1304, looked up) Splicing factor 3B subunit 1: MAKIAKTHEDIEAQIREIQGKKAALDEAQGVGLDSTGYYDQEIYGGSDSRFAGYVTSIAATELEDDDDDYSSSTSLLGQKKPGYHAPVALLNDIPQSTEQYDPFAEHRPPKIADREDEYKKHRRTMIISPERLDPFADGGKTPDPKMNARTYMDVMREQHLTKEEREIRQQLAEKAKAGELKVVNGAAASQPPSKRKRRWDQTADQTPGATPKKLSSWDQAETPGHTPSLRWDETPGRAKGSETPGATPGSKIWDPTPSHTPAGAATPGRGDTPGHATPGHGGATSSARKNRWDETPKTERDTPGHGSGWAETPRTDRGGDSIGETPTPGASKRKSRWDETPASQMGGSTPVLTPGKTPIGTPAMNMATPTPGHIMSMTPEQLQAWRWEREIDERNRPLSDEELDAMFPEGYKVLPPPAGYVPIRTPARKLTATPTPLGGMTGFHMQTEDRTMKSVNDQPSGNLPFLKPDDIQYFDKLLVDVDESTLSPEEQKERKIMKLLLKIKNGTPPMRKAALRQITDKAREFGAGPLFNQILPLLMSPTLEDQERHLLVKVIDRILYKLDDLVRPYVHKILVVIEPLLIDEDYYARVEGREIISNLAKAAGLATMISTMRPDIDNMDEYVRNTTARAFAVVASALGIPSLLPFLKAVCKSKKSWQARHTGIKIVQQIAILMGCAILPHLRSLVEIIEHGLVDEQQKVRTISALAIAALAEAATPYGIESFDSVLKPLWKGIRQHRGKGLAAFLKAIGYLIPLMDAEYANYYTREVMLILIREFQSPDEEMKKIVLKVVKQCCGTDGVEANYIKTEILPPFFKHFWQHRMALDRRNYRQLVDTTVELANKVGAAEIISRIVDDLKDEAEQYRKMVMETIEKIMGNLGAADIDHKLEEQLIDGILYAFQEQTTEDSVMLNGFGTVVNALGKRVKPYLPQICGTVLWRLNNKSAKVRQQAADLISRTAVVMKTCQEEKLMGHLGVVLYEYLGEEYPEVLGSILGALKAIVNVIGMHKMTPPIKDLLPRLTPILKNRHEKVQENCIDLVGRIADRGAEYVSAREWMRICFELLELLKAHKKAIRRATVNTFGYIAKAIGPHDVLATLLNNLKVQERQNRVCTTVAIAIVAETCSPFTVLPALMNEYRVPELNVQNGVLKSLSFLFEYIGEMGKDYIYAVTPLLEDALMDRDLVHRQTASAVVQHMSLGVYGFGCEDSLNHLLNYVWPNVFETSPHVIQAVMGALEGLRVAIGPCRMLQYCLQGLFHPARKVRDVYWKIYNSIYIGSQDALIAHYPRIYNDDKNTYIRYELDYIL | 6 |  |  |
| PATL1 (protein, UniProt Q86TB9 1-770, looked up) Protein PAT1 homolog 1: MFRYESLEDCPLDEDEDAFQGLGEEDEEIDQFNDDTFGSGAVDDDWQEAHERLAELEEKLPVAVNEQTGNGERDEMDLLGDHEENLAERLSKMVIENELEDPAIMRAVQTRPVLQPQPGSLNSSIWDGSEVLRRIRGPLLAQEMPTVSVLEYALPQRPPQGPEDDRDLSERALPRRSTSPIIGSPPVRAVPIGTPPKQMAVPSFTQQILCPKPVHVRPPMPPRYPAPYGERMSPNQLCSVPNSSLLGHPFPPSVPPVLSPLQRAQLLGGAQLQPGRMSPSQFARVPGFVGSPLAAMNPKLLQGRVGQMLPPAPGFRAFFSAPPSATPPPQQHPPGPGPHLQNLRSQAPMFRPDTTHLHPQHRRLLHQRQQQNRSQHRNLNGAGDRGSHRSSHQDHLRKDPYANLMLQREKDWVSKIQMMQLQSTDPYLDDFYYQNYFEKLEKLSAAEEIQGDGPKKERTKLITPQVAKLEHAYKPVQFEGSLGKLTVSSVNNPRKMIDAVVTSRSEDDETKEKQVRDKRRKTLVIIEKTYSLLLDVEDYERRYLLSLEEERPALMDDRKHKICSMYDNLRGKLPGQERPSDDHFVQIMCIRKGKRMVARILPFLSTEQAADILMTTARNLPFLIKKDAQDEVLPCLLSPFSLLLYHLPSVSITSLLRQLMNLPQSAATPALSNPHLTAVLQNKFGLSLLLILLSRGEDLQSSDPATESTQNNQWTEVMFMATRELLRIPQAALAKPISIPTNLVSLFSRYVDRQKLNLLETKLQLVQGIR | 6 |  |  |
| UBAP2 (protein, UniProt Q5T6F2 1-1119, looked up) Ubiquitin-associated protein 2: MMTSVSSDHCRGAREKPQISAAQSTQPQKQVVQATAEQMRLAQVIFDKNDSDFEAKVKQLMEVTGKNQDECIVALHDCNGDVNKAINILLEGNSDTTSWETVGCKKKNFAKENSENKENREKKSEKESSRGRGNNNRKGRGGNRGREFRGEENGIDCNQVDKPSDRGKRARGRGFGRGRGRGAGRFSTQGMGTFNPADYSDSTSTDVCGTKLVVWEAAQNGADEGTELASNTHNIAQDLSNKSSYGLKGAWKNSVEEWTTEDWTEDLSETKVFTASSAPAENHILPGQSIDLVALLQKPVPHSQASEANSFETSQQQGFGQALVFTNSQHNNQMAPGTGSSTAVNSCSPQSLSSVLGSGFGELAPPKMANITSSQILDQLKAPSLGQFTTTPSTQQNSTSHPTTTTSWDLKPPTSQSSVLSHLDFKSQPEPSPVLSQLSQRQQHQSQAVTVPPPGLESFPSQAKLRESTPGDSPSTVNKLLQLPSTTIENISVSVHQPQPKHIKLAKRRIPPASKIPASAVEMPGSADVTGLNVQFGALEFGSEPSLSEFGSAPSSENSNQIPISLYSKSLSEPLNTSLSMTSAVQNSTYTTSVITSCSLTSSSLNSASPVAMSSSYDQSSVHNRIPYQSPVSSSESAPGTIMNGHGGGRSQQTLDTPKTTGPPSALPSVSSLPSTTSCTALLPSTSQHTGDLTSSPLSQLSSSLSSHQSSLSAHAALSSSTSHTHASVESASSHQSSATFSTAATSVSSSASSGASLSSSMNTANSLCLGGTPASASSSSSRAAPLVTSGKAPPNLPQGVPPLLHNQYLVGPGGLLPAYPIYGYDELQMLQSRLPVDYYGIPFAAPTALASRDGSLANNPYPGDVTKFGRGDSASPAPATTPAQPQQSQSQTHHTAQQPFVNPALPPGYSYTGLPYYTGMPSAFQYGPTMFVPPASAKQHGVNLSTPTPPFQQASGYGQHGYSTGYDDLTQGTAAGDYSKGGYAGSSQAPNKSAGSGPGKGVSVSSSTTGLPDMTGSVYNKTQTFDKQGFHAGTPPPFSLPSVLGSTGPLASGAAPGYAPPPFLHILPAHQQPHSQLLHHHLPQDAQSGSGQRSQPSSLQPKSQASKPAYGNSPYWTN | 4 |  |  |
| NHP2 (protein, UniProt Q9NX24 1-153, looked up) H/ACA ribonucleoprotein …: MTKIKADPDGPEAQAEACSGERTYQELLVNQNPIAQPLASRRLTRKLYKCIKKAVKQKQIRRGVKEVQKFVNKGEKGIMVLAGDTLPIEVYCHLPVMCEDRNLPYVYIPSKTDLGAAAGSKRPTCVIMVKPHEEYQEAYDECLEEVQSLPLPL | 6 | 6 | 1 |
| SNX13 (protein, UniProt Q9Y5W8 1-968, looked up) Sorting nexin-13: MLTEASLSIWGWGSLGIVLFLITFGPFVIFYLTFYILCFVGGGLVVTLLFGKTNSEKYLEQCEHSFLPPTSPGVPKCLEEMKREARTIKIDRRLTGANIIDEPLQQVIQFSLRDYVQYWYYTLSDDESFLLEIRQTLQNALIQFATRSKEIDWQPYFTTRIVDDFGTHLRVFRKAQQKITEKDDQVKGTAEDLVDTFFEVEVEMEKEVCRDLVCTSPKDEEGFLRDLCEVLLYLLLPPGDFQNKIMRYFVREILARGILLPLINQLSDPDYINQYVIWMIRDSNCNYEAFMNIIKLSDNIGELEAVRDKAAEELQYLRSLDTAGDDINTIKNQINSLLFVKKVCDSRIQRLQSGKEINTVKLAANFGKLCTVPLDSILVDNVALQFFMDYMQQTGGQAHLFFWMTVEGYRVTAQQQLEVLLSRQRDGKHQTNQTKGLLRAAAVGIYEQYLSEKASPRVTVDDYLVAKLADTLNHEDPTPEIFDDIQRKVYELMLRDERFYPSFRQNALYVRMLAELDMLKDPSFRGSDDGDGESFNGSPTGSINLSLDDLSNVSSDDSVQLHAYISDTVYADYDPYAVAGVCNDHGKTYALYAITVHRRNLNSEEMWKTYRRYSDFHDFHMRITEQFESLSSILKLPGKKTFNNMDRDFLEKRKKDLNAYLQLLLAPEMMKASPALAHYVYDFLENKAYSKGKGDFARKMDTFVNPLRNSMRNVSNAVKSLPDSLAEGMTKMSDNMGKMSERLGQDIKQSFFKVPPLIPKTDSDPEHRRVSAQLDDNVDDNIPLRVMLLLMDEVFDLKERNQWLRRNIKNLLQQLIRATYGDTINRKIVDHVDWMTSPEQVADSVKRFRDAFWPNGILAEAVPCRDKSIRMRTRVAGKTKLLAIMPDELKHIIGAETTRKGILRVFEMFQHNQLNRRMVYVFLEGFLETLFPQYKFRELFNKLHSRSKQMQKYKQKLQTTQAPSLQKR | 5 |  |  |
| SRP72 (protein, UniProt O76094 2-671, looked up) Signal recognition particle …: ASGGSGGVSVPALWSEVNRYGQNGDFTRALKTVNKILQINKDDVTALHCKVVCLIQNGSFKEALNVINTHTKVLANNSLSFEKAYCEYRLNRIENALKTIESANQQTDKLKELYGQVLYRLERYDECLAVYRDLVRNSQDDYDEERKTNLSAVVAAQSNWEKVVPENLGLQEGTHELCYNTACALIGQGQLNQAMKILQKAEDLCRRSLSEDTDGTEEDPQAELAIIHGQMAYILQLQGRTEEALQLYNQIIKLKPTDVGLLAVIANNIITINKDQNVFDSKKKVKLTNAEGVEFKLSKKQLQAIEFNKALLAMYTNQAEQCRKISASLQSQSPEHLLPVLIQAAQLCREKQHTKAIELLQEFSDQHPENAAEIKLTMAQLKISQGNISKACLILRSIEELKHKPGMVSALVTMYSHEEDIDSAIEVFTQAIQWYQNHQPKSPAHLSLIREAANFKLKYGRKKEAISDLQQLWKQNPKDIHTLAQLISAYSLVDPEKAKALSKHLPSSDSMSLKVDVEALENSAGATYIRKKGGKVTGDSQPKEQGQGDLKKKKKKKKGKLPKNYDPKVTPDPERWLPMRERSYYRGRKKGKKKDQIGKGTQGATAGASSELDASKTVSSPPTSPRPGSAATVSASTSNIIPPRHQKPAGAPATKKKQQQKKKKGGKGGW | 4 |  |  |
| TRIM28 (protein, UniProt Q13263 2-835, looked up) Transcription intermediary …: AASAAAASAAAASAASGSPGPGEGSAGGEKRSTAPSAAASASASAAASSPAGGGAEALELLEHCGVCRERLRPEREPRLLPCLHSACSACLGPAAPAAANSSGDGGAAGDGTVVDCPVCKQQCFSKDIVENYFMRDSGSKAATDAQDANQCCTSCEDNAPATSYCVECSEPLCETCVEAHQRVKYTKDHTVRSTGPAKSRDGERTVYCNVHKHEPLVLFCESCDTLTCRDCQLNAHKDHQYQFLEDAVRNQRKLLASLVKRLGDKHATLQKSTKEVRSSIRQVSDVQKRVQVDVKMAILQIMKELNKRGRVLVNDAQKVTEGQQERLERQHWTMTKIQKHQEHILRFASWALESDNNTALLLSKKLIYFQLHRALKMIVDPVEPHGEMKFQWDLNAWTKSAEAFGKIVAERPGTNSTGPAPMAPPRAPGPLSKQGSGSSQPMEVQEGYGFGSGDDPYSSAEPHVSGVKRSRSGEGEVSGLMRKVPRVSLERLDLDLTADSQPPVFKVFPGSTTEDYNLIVIERGAAAAATGQPGTAPAGTPGAPPLAGMAIVKEEETEAAIGAPPTATEGPETKPVLMALAEGPGAEGPRLASPSGSTSSGLEVVAPEGTSAPGGGPGTLDDSATICRVCQKPGDLVMCNQCEFCFHLDCHLPALQDVPGEEWSCSLCHVLPDLKEEDGSLSLDGADSTGVVAKLSPANQRKCERVLLALFCHEPCRPLHQLATDSTFSLDQPGGTLDLTLIRARLQEKLSPPYSSPQEFAQDVGRMFKQFNKLTEDKADVQSIIGLQRFFETRMNEAFGDTKFSAVLVEPPPMSLPGAGLSSQELSGGPGDGP | 13 | 6 | 1 |
